Experimental data reported in paper PMC4357238, “Catalytic surface radical in dye-decolorizing peroxidase: a computational, spectroscopic and site-directed mutagenesis study” (Biochemical Journal, 2015).

Tests used:
Type in all cases: biochemical, Auricularia auricula-judae
[1] = substrate: COc1cccc(OC)c1O; test: steady-state kinetics, absorbance increase, Michaelis-Menten fit; conditions: 0.1 mM H2O2, 10 nM enzyme, 0.1 M tartrate pH 3, 25°C
Source text: (§1) steady-state kinetics, absorbance increase, Michaelis-Menten fit on DyP (dye-decolorizing peroxidase; mature DyP-I) of Auricularia auricula-judae

[2] = substrate: CCn1c(=NN=c2sc3cc(S(=O)(=O)O)ccc3n2CC)sc2cc(S(=O)(=O)O)ccc21; test: as above; conditions: 0.1 mM H2O2, 10 nM enzyme, 0.1 M tartrate pH 3, 25°C
Source text: as §1

[3] = substrate: Nc1c(N=Nc2ccc(S(=O)(=O)CCOS(=O)(=O)O)cc2)c(S(=O)(=O)O)cc2cc(S(=O)(=O)O)c(N=Nc3ccc(S(=O)(=O)CCOS(=O)(=O)O)cc3)c(O)c12; test: steady-state kinetics, absorbance decrease, Michaelis-Menten fit; conditions: single set of constants, 0.1 mM H2O2, 10 nM enzyme, 0.1 M tartrate pH 3, 25°C, pH 3.0
Source text: (§2) steady-state kinetics, absorbance decrease, Michaelis-Menten fit on DyP (dye-decolorizing peroxidase; mature DyP-I) of Auricularia auricula-judae

[4] = substrate: Nc1c(S(=O)(=O)O)cc(Nc2cccc(S(=O)(=O)CCOS(=O)(=O)O)c2)c2c1C(=O)c1ccccc1C2=O; test: as above; conditions: 0.1 mM H2O2, 10 nM enzyme, 0.1 M tartrate pH 3.5, 25°C
Source text: as §2

[5] = substrate: COc1ccc(CO)cc1OC; test: steady-state kinetics, absorbance increase, Michaelis-Menten fit; conditions: single set of constants, 0.1 mM H2O2, 100 nM enzyme, 0.1 M tartrate pH 2.5, 25°C, pH 2.5
Source text: as §1

[6] = two-site kinetics: high-affinity low-turnover site
[7] = single set (high-turnover site)
[8] = single set (high-turnover site, haem channel blocked), pH 3.5
[9] = two-site kinetics: high-affinity low-turnover site, pH 3.5
[10] = single set (low-turnover site), pH 3.0
[11] = two-site kinetics: high-affinity low-turnover site, pH 3.0
[12] = single set (low-turnover site), pH 3.5

B1: DyP (dye-decolorizing peroxidase; mature DyP-I) of Auricularia auricula-judae (Auricularia auricula-judae; G230L) (protein)
chain: ATSLNTDDIQGDILVGMHKQKQLFYFFAINDPATFKTHLASDIAPVVASVTQLSNVATQPLVALNIAFSNTGLLALGVTDNLGDSLFANGQAKDATSFKESTSSWVPQFAGTGIHGVIILASDTTDLIDQQVASIESTFGSSISKLYSLSASIRPGNEAGHEMFGFLDLIAQPAINGFNTPLPGQNIVDAGVIITGATNDPITRPSWAVGGSFLAFRQLEQLVPEFNKYLLDNAPAGSGSLQARADLLGARMVGRWKSGAPIDLTPTADDPALGADAQRNNNFTYSHAGFDLGSDQSHCPFSAHIRKTRPRADLGGSLTPPNLSAGANSIMRSGIPYGPEVTSAESASNTTTQERGLAFVAYQAQLSQGFHFLQQTWADNANFPPGKTPATVGLDPIIGQNNGQPRVVNGLLPSNSSASLSIPQFVVSHGGEYFFSPPISAIGGRLSA
notes: variants made on the same plasmid
Km [1, 6]: 6.0 ± 0.4 µM
kcat [1, 6]: 9.9 ± 0.2 s⁻¹
kcat/Km [1, 6]: 1.6e+06 ± 70000 M⁻¹ s⁻¹
Km [2, 7]: 25 ± 2 µM
kcat [2, 7]: 96 ± 2 s⁻¹
kcat/Km [2, 7]: 3.77e+06 ± 270000 M⁻¹ s⁻¹
Km [3]: 5.8 ± 0.6 µM
kcat [3]: 1.2 ± 0.1 s⁻¹
kcat/Km [3]: 217000 ± 13000 M⁻¹ s⁻¹
Km [4, 8]: 10 ± 3 µM
kcat [4, 8]: 106 ± 9 s⁻¹
kcat/Km [4, 8]: 1.24e+07 ± 3e+06 M⁻¹ s⁻¹

B2: DyP (dye-decolorizing peroxidase; mature DyP-I) of Auricularia auricula-judae (Auricularia auricula-judae) (protein)
chain: ATSLNTDDIQGDILVGMHKQKQLFYFFAINDPATFKTHLASDIAPVVASVTQLSNVATQPLVALNIAFSNTGLLALGVTDNLGDSLFANGQAKDATSFKESTSSWVPQFAGTGIHGVIILASDTTDLIDQQVASIESTFGSSISKLYSLSASIRPGNEAGHEMFGFLDGIAQPAINGFNTPLPGQNIVDAGVIITGATNDPITRPSWAVGGSFLAFRQLEQLVPEFNKYLLDNAPAGSGSLQARADLLGARMVGRWKSGAPIDLTPTADDPALGADAQRNNNFTYSHAGFDLGSDQSHCPFSAHIRKTRPRADLGGSLTPPNLSAGANSIMRSGIPYGPEVTSAESASNTTTQERGLAFVAYQAQLSQGFHFLQQTWADNANFPPGKTPATVGLDPIIGQNNGQPRVVNGLLPSNSSASLSIPQFVVSHGGEYFFSPPISAIGGRLSA
notes: as for B1
Km [1, 6]: 6.0 ± 0.5 µM
kcat [1, 6]: 8.0 ± 0.2 s⁻¹
kcat/Km [1, 6]: 1.35e+06 ± 100000 M⁻¹ s⁻¹
Km [2, 6]: 3.1 ± 1.1 µM
kcat [2, 6]: 7.4 ± 1.4 s⁻¹
kcat/Km [2, 6]: 2.37e+06 ± 420000 M⁻¹ s⁻¹
Km [3]: 15.6 ± 2.0 µM
kcat [3]: 4.8 ± 0.2 s⁻¹
kcat/Km [3]: 310000 ± 20000 M⁻¹ s⁻¹
Km [4, 9]: 14.0 ± 2.0 µM
kcat [4, 9]: 32.0 ± 3.0 s⁻¹
kcat/Km [4, 9]: 2.23e+06 ± 200000 M⁻¹ s⁻¹

B3: DyP (dye-decolorizing peroxidase; mature DyP-I) of Auricularia auricula-judae (Auricularia auricula-judae; W438S) (protein)
chain: ATSLNTDDIQGDILVGMHKQKQLFYFFAINDPATFKTHLASDIAPVVASVTQLSNVATQPLVALNIAFSNTGLLALGVTDNLGDSLFANGQAKDATSFKESTSSWVPQFAGTGIHGVIILASDTTDLIDQQVASIESTFGSSISKLYSLSASIRPGNEAGHEMFGFLDGIAQPAINGFNTPLPGQNIVDAGVIITGATNDPITRPSWAVGGSFLAFRQLEQLVPEFNKYLLDNAPAGSGSLQARADLLGARMVGRWKSGAPIDLTPTADDPALGADAQRNNNFTYSHAGFDLGSDQSHCPFSAHIRKTRPRADLGGSLTPPNLSAGANSIMRSGIPYGPEVTSAESASNTTTQERGLAFVAYQAQLSQGFHFLQQTSADNANFPPGKTPATVGLDPIIGQNNGQPRVVNGLLPSNSSASLSIPQFVVSHGGEYFFSPPISAIGGRLSA
notes: as for B1
Km [5]: 7360 ± 1270 µM
kcat [5]: 0.23 ± 0.01 s⁻¹
kcat/Km [5]: 32 ± 3 M⁻¹ s⁻¹
Km [1, 10]: 3560 ± 250 µM
kcat [1, 10]: 6.4 ± 0.1 s⁻¹
kcat/Km [1, 10]: 1800 ± 100 M⁻¹ s⁻¹
Km [2, 11]: 30.0 ± 0.5 µM
kcat [2, 11]: 14.0 ± 1.0 s⁻¹
kcat/Km [2, 11]: 472000 ± 61000 M⁻¹ s⁻¹
Km [3]: 10.6 ± 1.0 µM
kcat [3]: 0.70 ± 0.02 s⁻¹
kcat/Km [3]: 68000 ± 4000 M⁻¹ s⁻¹
Km [4, 12]: 3.9 ± 0.6 µM
kcat [4, 12]: 8.9 ± 0.6 s⁻¹
kcat/Km [4, 12]: 2.24e+06 ± 240000 M⁻¹ s⁻¹

B4: DyP (dye-decolorizing peroxidase; mature DyP-I) of Auricularia auricula-judae (Auricularia auricula-judae; Y398S) (protein)
chain: ATSLNTDDIQGDILVGMHKQKQLFYFFAINDPATFKTHLASDIAPVVASVTQLSNVATQPLVALNIAFSNTGLLALGVTDNLGDSLFANGQAKDATSFKESTSSWVPQFAGTGIHGVIILASDTTDLIDQQVASIESTFGSSISKLYSLSASIRPGNEAGHEMFGFLDGIAQPAINGFNTPLPGQNIVDAGVIITGATNDPITRPSWAVGGSFLAFRQLEQLVPEFNKYLLDNAPAGSGSLQARADLLGARMVGRWKSGAPIDLTPTADDPALGADAQRNNNFTYSHAGFDLGSDQSHCPFSAHIRKTRPRADLGGSLTPPNLSAGANSIMRSGIPSGPEVTSAESASNTTTQERGLAFVAYQAQLSQGFHFLQQTWADNANFPPGKTPATVGLDPIIGQNNGQPRVVNGLLPSNSSASLSIPQFVVSHGGEYFFSPPISAIGGRLSA
notes: as for B1
Km [4, 6]: 7.4 ± 2.3 µM
kcat [4, 6]: 26.0 ± 1.9 s⁻¹
kcat/Km [4, 6]: 3.37e+06 ± 350000 M⁻¹ s⁻¹
